Laboratory results taken from IntAct's records for PubMed 29892012.

B1: Kinetochore protein NDC80 homolog (Homo sapiens), O14777 (parent)
chain: MKRSSVSSGGAGRLSMQELRSQDVNKQGLYTPQTKEKPTFGKLSINKPTSERKVSLFGKRTSGHGSRNSQLGIFSSSEKIKDPRPLNDKAFIQQCIRQLCEFLTENGYAHNVSMKSLQAPSVKDFLKIFTFLYGFLCPSYELPDTKFEEEVPRIFKDLGYPFALSKSSMYTVGAPHTWPHIVAALVWLIDCIKIHTAMKESSPLFDDGQPWGEETEDGIMHNKLFLDYTIKCYESFMSGADSFDEMNAELQSKLKDLFNVDAFKLESLEAKNRALNEQIARLEQEREKEPNRLESLRKLKASLQGDVQKYQAYMSNLESHSAILDQKLNGLNEEIARVELECETIKQENTRLQNIIDNQKYSVADIERINHERNELQQTINKLTKDLEAEQQKLWNEELKYARGKEAIETQLAEYHKLARKLKLIPKGAENSKGYDFEIKFNPEAGANCLVKYRAQVYVPLKELLNETEEEINKALNKKMGLEDTLEQLNAMITESKRSVRTLKEEVQKLDDLYQQKIKEAEEEDEKCASELESLEKHKHLLESTVNQGLSEAMNELDAVQREYQLVVQTTTEERRKVGNNLQRLLEMVATHVGSVEKHLEEQIAKVDREYEECMSEDLSENIKEIRDKYEKKATLIKSSEE
B2: Vesicle transport protein USE1 (Homo sapiens), Q9NZ43 (parent)
chain: MAASRLELNLVRLLSRCEAMAAEKRDPDEWRLEKYVGALEDMLQALKVHASKPASEVINEYSWKVDFLKGMLQAEKLTSSSEKALANQFLAPGRVPTTARERVPATKTVHLQSRARYTSEMRSELLGTDSAEPEMDVRKRTGVAGSQPVSEKQLAAELDLVLQRHQNLQEKLAEEMLGLARSLKTNTLAAQSVIKKDNQTLSHSLKMADQNLEKLKTESERLEQHTQKSVNWLLWAMLIIVCFIFISMILFIRIMPKLK
B3: Kinetochore protein NDC80 homolog (Homo sapiens), O14777 (parent)
chain: B1 chain
partner: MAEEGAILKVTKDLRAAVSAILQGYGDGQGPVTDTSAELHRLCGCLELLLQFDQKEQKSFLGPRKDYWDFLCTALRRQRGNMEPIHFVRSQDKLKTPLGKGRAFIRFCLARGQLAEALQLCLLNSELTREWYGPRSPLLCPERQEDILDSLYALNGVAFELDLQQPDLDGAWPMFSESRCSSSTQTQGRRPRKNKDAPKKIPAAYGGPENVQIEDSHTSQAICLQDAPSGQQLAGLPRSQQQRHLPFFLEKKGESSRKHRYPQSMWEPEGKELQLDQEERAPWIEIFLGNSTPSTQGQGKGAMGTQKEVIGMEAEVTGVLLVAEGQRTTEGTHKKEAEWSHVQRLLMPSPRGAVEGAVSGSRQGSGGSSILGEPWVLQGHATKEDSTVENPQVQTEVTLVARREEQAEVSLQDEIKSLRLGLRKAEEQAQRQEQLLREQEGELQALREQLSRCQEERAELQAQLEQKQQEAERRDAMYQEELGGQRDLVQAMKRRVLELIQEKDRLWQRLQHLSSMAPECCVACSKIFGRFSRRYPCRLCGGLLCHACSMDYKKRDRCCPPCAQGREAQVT
B4: Keratin, type I cuticular Ha8 (Homo sapiens), O76015 (parent)
chain: MTSSYSSSSCPLGCTMAPGARNVSVSPIDIGCQPGAEANIAPMCLLANVAHANRVRVGSTPLGRPSLCLPPTCHTACPLPGTCHIPGNIGICGAYGENTLNGHEKETMQFLNDRLANYLEKVRQLEQENAELEATLLERSKCHESTVCPDYQSYFHTIEELQQKILCSKAENARLIVQIDNAKLAADDFRIKLESERSLRQLVEADKCGTQKLLDDATLAKADLEAQQESLKEEQLSLKSNHEQEVKILRSQLGEKLRIELDIEPTIDLNRVLGEMRAQYEAMLETNRQDVEQWFQAQSEGISLQDMSCSEELQCCQSEILELRCTVNALEVERQAQHTLKDCLQNSLCEAEDRFGTELAQMQSLISNVEEQLSEIRADLERQNQEYQVLLDVKTRLENEIATYRNLLESEDCKLPCNPCSTSPSCVTAPCAPRPSCGPCTTCGPTCGASTTGSRF
partner: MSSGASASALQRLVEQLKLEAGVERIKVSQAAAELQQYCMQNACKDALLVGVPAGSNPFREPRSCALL
B5: Zinc finger protein 64 (Homo sapiens), Q9NTW7 (parent)
chain: MNASSEGESFAGSVQIPGGTTVLVELTPDIHICGICKQQFNNLDAFVAHKQSGCQLTGTSAAAPSTVQFVSEETVPATQTQTTTRTITSETQTITVSAPEFVFEHGYQTYLPTESNENQTATVISLPAKSRTKKPTTPPAQKRLNCCYPGCQFKTAYGMKDMERHLKIHTGDKPHKCEVCGKCFSRKDKLKTHMRCHTGVKPYKCKTCDYAAADSSSLNKHLRIHSDERPFKCQICPYASRNSSQLTVHLRSHTASELDDDVPKANCLSTESTDTPKAPVITLPSEAREQMATLGERTFNCCYPGCHFKTVHGMKDLDRHLRIHTGDKPHKCEFCDKCFSRKDNLTMHMRCHTSVKPHKCHLCDYAAVDSSSLKKHLRIHSDERPYKCQLCPYASRNSSQLTVHLRSHTGDTPFQCWLCSAKFKISSDLKRHMIVHSGEKPFKCEFCDVRCTMKANLKSHIRIKHTFKCLHCAFQGRDRADLLEHSRLHQADHPEKCPECSYSCSSAAALRVHSRVHCKDRPFKCDFCSFDTKRPSSLAKHVDKVHRDEAKTENRAPLGKEGLREGSSQHVAKIVTQRAFRCETCGASFVRDDSLRCHKKQHSDQSENKNSDLVTFPPESGASGQLSTLVSVGQLEAPLEPSQDL
partner: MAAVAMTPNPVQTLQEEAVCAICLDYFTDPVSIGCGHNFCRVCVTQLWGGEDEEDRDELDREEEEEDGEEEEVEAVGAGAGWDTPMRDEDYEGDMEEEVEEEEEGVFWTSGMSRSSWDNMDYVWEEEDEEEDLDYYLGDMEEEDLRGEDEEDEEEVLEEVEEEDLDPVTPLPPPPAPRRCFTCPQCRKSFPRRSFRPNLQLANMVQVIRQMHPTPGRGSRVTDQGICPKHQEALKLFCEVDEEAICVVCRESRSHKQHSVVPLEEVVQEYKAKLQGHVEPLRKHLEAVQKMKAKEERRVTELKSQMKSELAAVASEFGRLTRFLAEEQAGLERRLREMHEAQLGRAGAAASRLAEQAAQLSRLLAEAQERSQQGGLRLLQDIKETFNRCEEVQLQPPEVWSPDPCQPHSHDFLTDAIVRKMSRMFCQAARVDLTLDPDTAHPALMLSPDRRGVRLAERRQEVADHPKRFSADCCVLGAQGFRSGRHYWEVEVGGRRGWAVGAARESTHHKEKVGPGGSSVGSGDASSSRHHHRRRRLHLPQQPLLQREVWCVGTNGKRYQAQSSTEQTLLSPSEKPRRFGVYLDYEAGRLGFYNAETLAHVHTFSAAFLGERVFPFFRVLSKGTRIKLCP
B6: F-box/LRR-repeat protein 12 (Homo sapiens), Q9NXK8 (parent)
chain: MATLVELPDSVLLEIFSYLPVRDRIRISRVCHRWKRLVDDRWLWRHVDLTLYTMRPKVMWHLLRRYMASRLHSLRMGGYLFSGSQAPQLSPALLRALGQKCPNLKRLCLHVADLSMVPITSLPSTLRTLELHSCEISMAWLHKQQDPTVLPLLECIVLDRVPAFRDEHLQGLTRFRALRSLVLGGTYRVTETGLDAGLQELSYLQRLEVLGCTLSADSTLLAISRHLRDVRKIRLTVRGLSAPGLAVLEGMPALESLCLQGPLVTPEMPSPTEILSSCLTMPKLRVLELQGLGWEGQEAEKILCKGLPHCMVIVRACPKESMDWWM
B7: Solute carrier family 35 member C2 (Homo sapiens), Q9NQQ7 (parent)
chain: MGRWALDVAFLWKAVLTLGLVLLYYCFSIGITFYNKWLTKSFHFPLFMTMLHLAVIFLFSALSRALVQCSSHRARVVLSWADYLRRVAPTALATALDVGLSNWSFLYVTVSLYTMTKSSAVLFILIFSLIFKLEELRAALVLVVLLIAGGLFMFTYKSTQFNVEGFALVLGASFIGGIRWTLTQMLLQKAELGLQNPIDTMFHLQPLMFLGLFPLFAVFEGLHLSTSEKIFRFQDTGLLLRVLGSLFLGGILAFGLGFSEFLLVSRTSSLTLSIAGIFKEVCTLLLAAHLLGDQISLLNWLGFALCLSGISLHVALKALHSRGDGGPKALKGLGSSPDLELLLRSSQREEGDNEEEEYFVAQGQQ
B8: Keratin, type I cuticular Ha8 (Homo sapiens), O76015 (parent)
chain: B4 chain
partner: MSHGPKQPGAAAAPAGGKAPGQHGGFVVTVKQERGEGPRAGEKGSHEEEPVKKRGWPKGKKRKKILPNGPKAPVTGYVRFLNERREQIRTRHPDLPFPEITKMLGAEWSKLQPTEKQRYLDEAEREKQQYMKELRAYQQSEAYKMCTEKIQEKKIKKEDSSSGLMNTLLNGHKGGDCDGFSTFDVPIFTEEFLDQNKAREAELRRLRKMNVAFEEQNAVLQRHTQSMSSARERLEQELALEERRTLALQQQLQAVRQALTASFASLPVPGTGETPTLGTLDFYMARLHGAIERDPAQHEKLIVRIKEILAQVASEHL
B9: Zinc finger protein 64 (Homo sapiens), Q9NTW7 (parent)
chain: B5 chain
partner: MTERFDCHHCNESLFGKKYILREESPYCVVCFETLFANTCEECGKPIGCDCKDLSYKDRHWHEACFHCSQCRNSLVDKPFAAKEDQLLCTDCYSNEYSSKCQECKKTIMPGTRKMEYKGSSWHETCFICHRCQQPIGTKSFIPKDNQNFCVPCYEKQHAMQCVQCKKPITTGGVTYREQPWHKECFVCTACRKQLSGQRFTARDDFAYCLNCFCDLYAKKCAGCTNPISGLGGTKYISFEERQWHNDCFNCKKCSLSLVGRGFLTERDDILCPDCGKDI
B10: Keratin, type I cuticular Ha8 (Homo sapiens), O76015 (parent)
chain: B4 chain
partner: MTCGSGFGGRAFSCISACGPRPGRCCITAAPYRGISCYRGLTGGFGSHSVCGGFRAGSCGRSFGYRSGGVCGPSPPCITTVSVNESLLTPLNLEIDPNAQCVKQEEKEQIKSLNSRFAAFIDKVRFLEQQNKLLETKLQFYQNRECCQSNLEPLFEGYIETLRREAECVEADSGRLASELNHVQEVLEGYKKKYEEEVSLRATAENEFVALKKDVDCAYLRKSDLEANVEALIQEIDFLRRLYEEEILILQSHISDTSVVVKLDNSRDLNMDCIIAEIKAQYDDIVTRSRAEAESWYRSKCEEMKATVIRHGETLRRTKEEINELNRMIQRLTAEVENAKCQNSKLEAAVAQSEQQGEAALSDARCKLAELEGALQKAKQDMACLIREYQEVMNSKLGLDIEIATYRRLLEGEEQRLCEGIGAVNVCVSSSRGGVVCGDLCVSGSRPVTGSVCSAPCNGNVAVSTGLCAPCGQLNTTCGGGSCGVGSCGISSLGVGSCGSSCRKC
B11: Kinetochore protein NDC80 homolog (Homo sapiens), O14777 (parent)
chain: B1 chain
partner: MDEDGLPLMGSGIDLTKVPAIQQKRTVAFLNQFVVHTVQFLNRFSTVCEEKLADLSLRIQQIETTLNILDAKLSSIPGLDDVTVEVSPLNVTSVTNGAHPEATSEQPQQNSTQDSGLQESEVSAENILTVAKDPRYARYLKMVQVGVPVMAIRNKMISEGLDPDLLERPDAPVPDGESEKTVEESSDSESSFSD

Variants of: B1
Conditions: with tnip1_human TNIP1, Q15025
Chain of tnip1_human TNIP1, Q15025 (Q15025 whole entry): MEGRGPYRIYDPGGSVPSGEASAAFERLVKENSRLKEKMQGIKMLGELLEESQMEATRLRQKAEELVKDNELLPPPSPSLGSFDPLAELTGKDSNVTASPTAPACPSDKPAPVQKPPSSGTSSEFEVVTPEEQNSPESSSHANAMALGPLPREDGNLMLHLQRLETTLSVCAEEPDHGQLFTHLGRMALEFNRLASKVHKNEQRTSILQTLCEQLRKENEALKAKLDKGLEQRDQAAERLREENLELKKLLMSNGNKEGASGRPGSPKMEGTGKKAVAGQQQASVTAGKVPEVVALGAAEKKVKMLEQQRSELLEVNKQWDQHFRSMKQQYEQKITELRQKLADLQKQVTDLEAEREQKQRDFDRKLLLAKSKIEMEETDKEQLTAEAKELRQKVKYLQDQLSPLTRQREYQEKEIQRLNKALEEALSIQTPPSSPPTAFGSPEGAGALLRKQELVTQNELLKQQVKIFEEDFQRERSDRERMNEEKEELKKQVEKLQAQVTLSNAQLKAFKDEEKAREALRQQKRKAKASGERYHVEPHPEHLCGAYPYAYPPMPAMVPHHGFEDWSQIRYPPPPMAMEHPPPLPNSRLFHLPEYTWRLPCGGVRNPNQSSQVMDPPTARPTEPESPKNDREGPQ

effect of a mutation on the interaction	Variant
with no effect	K288E

Variants of: B1
Conditions: with amol2_human AMOTL2, Q9Y2J4
Chain of amol2_human AMOTL2, Q9Y2J4 (Q9Y2J4 whole entry): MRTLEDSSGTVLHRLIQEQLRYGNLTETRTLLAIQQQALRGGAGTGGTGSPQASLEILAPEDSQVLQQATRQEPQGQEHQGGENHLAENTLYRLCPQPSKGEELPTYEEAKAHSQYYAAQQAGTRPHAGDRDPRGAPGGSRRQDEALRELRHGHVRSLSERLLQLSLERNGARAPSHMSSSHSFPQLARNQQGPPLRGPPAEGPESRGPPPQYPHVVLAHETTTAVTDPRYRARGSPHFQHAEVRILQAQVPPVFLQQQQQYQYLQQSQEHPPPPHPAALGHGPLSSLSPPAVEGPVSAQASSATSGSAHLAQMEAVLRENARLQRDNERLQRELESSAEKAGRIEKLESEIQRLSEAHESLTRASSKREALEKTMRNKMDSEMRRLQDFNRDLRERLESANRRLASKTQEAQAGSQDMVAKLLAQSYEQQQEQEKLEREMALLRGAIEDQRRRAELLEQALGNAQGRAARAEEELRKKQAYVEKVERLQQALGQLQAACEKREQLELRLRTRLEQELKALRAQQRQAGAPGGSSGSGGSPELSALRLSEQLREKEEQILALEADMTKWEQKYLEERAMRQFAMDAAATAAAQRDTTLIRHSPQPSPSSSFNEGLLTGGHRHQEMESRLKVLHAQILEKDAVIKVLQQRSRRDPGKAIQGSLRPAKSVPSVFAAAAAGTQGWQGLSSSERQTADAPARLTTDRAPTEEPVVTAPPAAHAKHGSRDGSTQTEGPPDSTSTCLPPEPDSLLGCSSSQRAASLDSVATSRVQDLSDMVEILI

effect of a mutation on the interaction	Variant
with no effect	K288E

Variants of: B1
Conditions: with atf4_human ATF4, P18848
Chain of atf4_human ATF4, P18848 (P18848 whole entry): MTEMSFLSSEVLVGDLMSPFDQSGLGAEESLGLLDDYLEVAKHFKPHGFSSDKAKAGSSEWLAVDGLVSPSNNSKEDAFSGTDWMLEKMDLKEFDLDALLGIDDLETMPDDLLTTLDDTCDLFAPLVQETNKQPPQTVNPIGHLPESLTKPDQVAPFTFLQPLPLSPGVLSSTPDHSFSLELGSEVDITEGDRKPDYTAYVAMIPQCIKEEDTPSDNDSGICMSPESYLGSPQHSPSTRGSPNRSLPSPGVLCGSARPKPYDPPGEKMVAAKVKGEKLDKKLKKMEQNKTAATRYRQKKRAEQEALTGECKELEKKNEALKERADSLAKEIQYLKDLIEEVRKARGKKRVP

effect of a mutation on the interaction	Variant
with no effect	K288E

Variants of: B1
Conditions: with txlna_human TXLNA

effect of a mutation on the interaction	Variant
with no effect	K288E

Variants of: B2
Conditions: with bscl2_human BSCL2, Q96G97
Chain of bscl2_human BSCL2, Q96G97 (Q96G97 whole entry): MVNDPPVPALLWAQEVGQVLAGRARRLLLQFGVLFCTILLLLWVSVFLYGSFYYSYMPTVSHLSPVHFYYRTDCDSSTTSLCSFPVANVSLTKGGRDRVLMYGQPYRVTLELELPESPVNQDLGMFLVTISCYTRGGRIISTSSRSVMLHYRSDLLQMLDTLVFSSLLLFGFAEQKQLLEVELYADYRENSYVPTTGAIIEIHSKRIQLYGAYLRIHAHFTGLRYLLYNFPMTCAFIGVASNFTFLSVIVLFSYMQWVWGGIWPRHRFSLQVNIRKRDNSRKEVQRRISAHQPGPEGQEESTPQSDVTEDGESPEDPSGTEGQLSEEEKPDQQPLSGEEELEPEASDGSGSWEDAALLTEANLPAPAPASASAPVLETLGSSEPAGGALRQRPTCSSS

effect of a mutation on the interaction	Variant
with no effect	T217M

Variants of: B2
Conditions: with creb3_human CREB3, O43889
Target sequence in this assay (O43889 whole entry): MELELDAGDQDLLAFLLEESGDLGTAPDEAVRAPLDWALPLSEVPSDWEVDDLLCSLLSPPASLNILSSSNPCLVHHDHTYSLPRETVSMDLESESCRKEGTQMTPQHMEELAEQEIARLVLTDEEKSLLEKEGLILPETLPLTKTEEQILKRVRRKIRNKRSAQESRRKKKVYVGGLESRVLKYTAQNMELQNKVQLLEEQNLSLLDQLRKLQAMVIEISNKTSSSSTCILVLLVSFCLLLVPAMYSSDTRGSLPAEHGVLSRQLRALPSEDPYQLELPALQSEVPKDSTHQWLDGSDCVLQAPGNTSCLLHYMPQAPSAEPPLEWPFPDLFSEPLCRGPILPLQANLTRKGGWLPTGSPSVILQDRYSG

effect of a mutation on the interaction	Variant
with no effect	T217M

Variants of: B3
Conditions: with rufy4_human RUFY4, Q6ZNE9

effect of a mutation on the interaction	Variant
with no effect	K288E

Variants of: B4
Conditions: with gbg10_human GNG10, P50151

effect of a mutation on the interaction	Variant
with no effect	D306A

Variants of: B4
Conditions: with gbg10_human GNG10, P50151
Remark: another data set of the same source

effect of a mutation on the interaction	Variant
with no effect	N270K

Variants of: B5
Conditions: with tri41_human TRIM41, Q8WV44

effect of a mutation on the interaction	Variant
with no effect	D227E

Variants of: B6
Conditions: with dock8_human DOCK8, Q8NF50
Chain of dock8_human DOCK8, Q8NF50 (Q8NF50 whole entry): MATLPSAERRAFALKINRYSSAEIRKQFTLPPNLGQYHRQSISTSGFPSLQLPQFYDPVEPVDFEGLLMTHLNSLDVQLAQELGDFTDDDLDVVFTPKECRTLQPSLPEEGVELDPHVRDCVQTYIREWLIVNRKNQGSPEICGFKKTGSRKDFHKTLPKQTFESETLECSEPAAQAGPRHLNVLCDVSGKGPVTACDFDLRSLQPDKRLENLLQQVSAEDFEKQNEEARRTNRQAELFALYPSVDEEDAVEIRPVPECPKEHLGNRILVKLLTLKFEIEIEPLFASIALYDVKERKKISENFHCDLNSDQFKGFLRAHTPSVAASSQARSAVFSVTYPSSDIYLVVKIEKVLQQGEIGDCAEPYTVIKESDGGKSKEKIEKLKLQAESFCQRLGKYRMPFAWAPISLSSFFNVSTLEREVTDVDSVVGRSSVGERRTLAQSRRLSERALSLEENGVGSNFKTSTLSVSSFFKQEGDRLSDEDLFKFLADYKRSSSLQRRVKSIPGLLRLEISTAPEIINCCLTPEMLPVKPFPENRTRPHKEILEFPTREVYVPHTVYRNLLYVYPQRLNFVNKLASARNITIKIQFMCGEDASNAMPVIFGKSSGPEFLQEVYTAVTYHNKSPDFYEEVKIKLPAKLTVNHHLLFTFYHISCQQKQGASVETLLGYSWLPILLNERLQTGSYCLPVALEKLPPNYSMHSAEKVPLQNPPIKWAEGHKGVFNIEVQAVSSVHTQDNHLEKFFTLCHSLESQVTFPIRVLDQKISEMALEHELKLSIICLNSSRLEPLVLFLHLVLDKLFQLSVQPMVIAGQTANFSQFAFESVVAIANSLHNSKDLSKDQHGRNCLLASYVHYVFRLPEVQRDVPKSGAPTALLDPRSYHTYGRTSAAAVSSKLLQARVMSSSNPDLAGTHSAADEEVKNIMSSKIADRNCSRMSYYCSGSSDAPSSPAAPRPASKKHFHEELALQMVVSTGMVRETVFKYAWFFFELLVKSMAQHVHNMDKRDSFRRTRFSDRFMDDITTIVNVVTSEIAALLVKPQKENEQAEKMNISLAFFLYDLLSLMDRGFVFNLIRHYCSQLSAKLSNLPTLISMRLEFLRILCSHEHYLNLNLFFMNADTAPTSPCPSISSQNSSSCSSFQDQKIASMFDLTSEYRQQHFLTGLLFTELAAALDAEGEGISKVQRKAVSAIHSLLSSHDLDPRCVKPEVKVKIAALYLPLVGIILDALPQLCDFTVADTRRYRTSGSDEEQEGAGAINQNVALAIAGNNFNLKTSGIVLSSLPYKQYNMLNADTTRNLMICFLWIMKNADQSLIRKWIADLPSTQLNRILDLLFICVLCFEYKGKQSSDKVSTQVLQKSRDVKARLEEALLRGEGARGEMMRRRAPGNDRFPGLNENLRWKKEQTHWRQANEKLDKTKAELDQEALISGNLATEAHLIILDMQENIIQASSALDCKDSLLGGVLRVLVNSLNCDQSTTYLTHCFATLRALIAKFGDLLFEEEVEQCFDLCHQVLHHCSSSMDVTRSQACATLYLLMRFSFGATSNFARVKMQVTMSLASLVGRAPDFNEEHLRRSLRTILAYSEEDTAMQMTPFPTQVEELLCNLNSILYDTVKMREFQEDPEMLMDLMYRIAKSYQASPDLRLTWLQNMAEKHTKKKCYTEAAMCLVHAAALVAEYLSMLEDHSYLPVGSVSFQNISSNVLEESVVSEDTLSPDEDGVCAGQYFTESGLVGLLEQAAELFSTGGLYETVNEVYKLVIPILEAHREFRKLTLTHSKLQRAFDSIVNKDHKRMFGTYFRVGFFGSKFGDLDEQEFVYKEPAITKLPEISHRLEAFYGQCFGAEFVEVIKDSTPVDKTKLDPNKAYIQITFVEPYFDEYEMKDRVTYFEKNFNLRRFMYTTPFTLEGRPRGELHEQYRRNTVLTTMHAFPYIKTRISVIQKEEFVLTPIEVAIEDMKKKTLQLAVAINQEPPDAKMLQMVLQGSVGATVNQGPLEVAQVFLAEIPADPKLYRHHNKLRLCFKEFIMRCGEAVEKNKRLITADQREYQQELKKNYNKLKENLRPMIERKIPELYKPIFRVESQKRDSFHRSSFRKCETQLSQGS

effect of a mutation on the interaction	Variant
with no effect	I313V

Variants of: B7
Conditions: with creb3_human CREB3, O43889
Target sequence in this assay (O43889 whole entry): as the sequence (O43889 whole entry) above

effect of a mutation on the interaction	Variant
with no effect	G176S

Variants of: B8
Conditions: with hm20b_human HMG20B

effect of a mutation on the interaction	Variant
with no effect	D306A

Variants of: B8
Conditions: with hm20b_human HMG20B
Remark: another data set of the same source

effect of a mutation on the interaction	Variant
with no effect	N270K

Variants of: B9
Conditions: with fhl2_human FHL2, Q14192

effect of a mutation on the interaction	Variant
with no effect	D227E

Variants of: B10
Conditions: with krt81_human KRT81, Q14533

effect of a mutation on the interaction	Variant
with no effect	D306A

Variants of: B10
Conditions: with krt81_human KRT81, Q14533
Remark: another data set of the same source

effect of a mutation on the interaction	Variant
with no effect	N270K

Variants of: B11
Conditions: with wasc3_human WASHC3, Q9Y3C0

effect of a mutation on the interaction	Variant
with no effect	K288E
